Experimental data taken from patent US20080300206.

Tests used:
[1] = biological target: recombinant wild-type human alpha-synuclein
[2] = biological target: alpha synuclein familial mutant A30P
[3] = biological target: alpha synuclein familial mutant E46K
[4] = biological target: alpha synuclein familial mutant A53T

Sequence of beta synuclein, Q16143 (Q16143 whole entry): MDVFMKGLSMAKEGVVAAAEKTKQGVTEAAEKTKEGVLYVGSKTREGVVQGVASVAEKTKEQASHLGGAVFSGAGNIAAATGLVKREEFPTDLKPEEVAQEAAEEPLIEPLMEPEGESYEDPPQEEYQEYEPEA

B1: Polo like kinase 2 (PLK2) (protein)
chain: MELLRTITYQPAASTKMCEQALGKGCGADSKKKRPPQPPEESQPPQSQAQVPPAAPHHHHHHSHSGPEISRIIVDPTTGKRYCRGKVLGKGGFAKCYEMTDLTNNKVYAAKIIPHSRVAKPHQREKIDKEIELHRILHHKHVVQFYHYFEDKENIYILLEYCSRRSMAHILKARKVLTEPEVRYYLRQIVSGLKYLHEQEILHRDLKLGNFFINEAMELKVGDFGLAARLEPLEHRRRTICGTPNYLSPEVLNKQGHGCESDIWALGCVMYTMLLGRPPFETTNLKETYRCIREARYTMPSSLLAPAKHLIASMLSKNPEDRPSLDDIIRHDFFLQGFTPDRLSSSCCHTVPDFHLSSPAKNFFKKAAAALFGGKKDKARYIDTHNRVSKEDEDIYKLRHDLKKTSITQQPSKHRTDEELQPPTTTVARSGTPAVENKQQIGDAIRMIVRGTLGSCSSSSECLEDSTMGSVADTVARVLRGCLENMPEADCIPKEQLSTSFQWVTKWVDYSNKYGFGYQLSDHTVGVLFNNGAHMSLLPDKKTVHYYAELGQCSVFPATDAPEQFISQVTVLKYFSHYMEENLMDGGDLPSVTDIRRPRLYLLQWLKSDKALMMLFNDGTFQVNFYHDHTKIIICSQNEEYLLTYINEDRISTTFRLTTLLMSGCSSELKNRMEYALNMLLQRCN
Question: With B1 as the protein, how does the Fold Change in Percent Synuclein Phosphorylation, HEK-293 overexpression [1] read?
Answer: The Fold Change in Percent Synuclein Phosphorylation, HEK-293 overexpression was 21.2 fold.

Question: What about the “PLK2 activity in vitro, autoradiography” value [1] of the same protein?
Answer: Its value is “PLK2 was found to be more active against wild-type alpha synuclein than beta synuclein”.

Question: What about the “Proportion of total synuclein that is phoshorylated at ser-129, HEK-293 overexpression, ELISA” value [1] of the same protein?
Answer: The value was 42.3%.

Question: What about the “S129 phosphorylation, immunoblot (11A5), kinase:AS 1:200 molar” value [1] of the same protein?
Answer: The value was “Prominent signals came from GRK6, CKI, CKII and PLK2”.

Question: What about the “S129 phosphorylation, immunoblot (11A5), rank of signal” value [1] of the same protein?
Answer: Its value is “CKI>GRK6>PLK2>GRK4>GRK5>GRK2”.

Question: And the “extent of S129 phosphorylation by mass spectrometry after co-expression in bacteria” value [1]?
Answer: Its value is “more than 95% phosphorylated”.

Question: What about the “in vitro biochemical assay, phosphorylation of synuclein” value [1] of the same protein?
Answer: The value was “PLK2 and PLK3 having extremely robust phosphorylation of synuclein”.

Question: And the “in vitro kinase reaction, phosphorylation of alpha-synuclein at serine 129” value [1]?
Answer: The value was “capable of phosphorylating alpha-synuclein specifically at serine 129 and did not phosphorylate serine 87 in vitro”.

Question: And the “phospho ser-129 level in vitro, normalised for molarity” value [1]?
Answer: Its value is “roughly equivalent levels of phospho ser-129 between CKI, GRK6 and PLK2”.

Question: And the “PLK2 activity in vitro, autoradiography” value (beta synuclein, Q16143)?
Answer: The value was “minimally against beta synuclein”.

Question: What about the “PLK2 activity in vitro, autoradiography” value [2] of the same protein?
Answer: The value was “the mutant alpha-synucleins were phosphorylated more at a given concentration (especially at lower concentrations) than WT”.

Question: What about the “PLK2 activity in vitro, autoradiography” value [3] of the same protein?
Answer: Its value is “the mutant alpha-synucleins were phosphorylated more at a given concentration (especially at lower concentrations) than WT”.

Question: What about the “PLK2 activity in vitro, autoradiography” value [4] of the same protein?
Answer: Its value is “the mutant alpha-synucleins were phosphorylated more at a given concentration (especially at lower concentrations) than WT”.
